This is an account of results in the DeepSol protein solubility set.

A short description of the data set: soluble on expression in E. coli; label from the status in PepcDB or PDB records.
As to “GGSGGTSTAGNPNVNVPNNQITAKSKKEFIQQAMPIAKAIEEKWGVPAEVVIAQAALESGWGKHVKGNAYFGIKGKGSQGSINFGTHEVINGKKISINDNFASYGGFGDAANGYGEFLNKNKRYREAFKHKDNPVEFAKAIARAGYATDPDYANKLTKIIQSNKF”, the “soluble on expression in E. coli” value is recorded as “not soluble”.
For “GGSGWNADNVDPSQCIKQSGVQYTYNSGVSVCMQGLNEGKVRGVSVSGVFYYNDGTTSNFKGVVTPSTPVNTNQDINKTNKVGVQKYRALTEWVGSRSHHHHHH”, the “soluble on expression in E. coli” value is recorded as “soluble”.
In the case of “GGVQLNFGGNFTYNKNEILSLGNVDVQKDARTIRMVGKEFNAFYGYKSDGIFQSKEEIANAPKYTMISNDRLIPGDIKLVDINGDGEINPDDKVILSSENPKYTFAFNLGARWKMFDINLFFQGAAGVSRYFTDEFYGEFNGDSGHPSNHWLGRWTPENPTNKWPRASKFRTYNLPETTCSDFWLVNTNYLRLKDIQVGFNVPKEWLQAVRLGSARIYYSGTNLLTFSKTPQGIDPEAPAGWGAYYPHVKTHSIGINITL” it was “not soluble”; in that of “GGVVVTPRAPYIHDLDGLPMAWDLVEWPIYTYRAKNDARLAIVSSSRGCKQQCSFCSQQLFWSQSWRARSAENFVAELEMLHTVHGVQVAMLSDEIPTFDRQRWVRILDLMIERQVPVKLLMETRVDDILRDADIMDRYREGGVEHIYVGVEAGTQETLDLFKKDTQVEQSKQAIDLINNADIVSETSFVLGMPDDTPESIAQTIELAKHYNPDMAFFLAIAPWPYAELYPQLEEYVATKDYRKYNLVEPVIKPKHMTLEELERQLGKASQQFFMH”, “not soluble”.
“GHHHHHHAIAENLYFQSMEYGHHARPDSKRPLDEGSPAAAGLTSKKANEALTRNRELTTVLVKNLPKSYNQNKVYKYFKHCGPIIHVDVADSLKKNFRFARIEFARYDGALAAITKTHKVVGQNEIIVSHLTECTLWMTNFPPSYTQRNIRDLLQDINVVALSIRLPSLRFNTSRRFAYIDVTSKEDARYCVEKLNGLKIEGYTLVTKVSNPLEKSKRTDSATLEGREIMIRNLSTELLDENLLRESFEGFGSIEKINIPAGQKEHSFNNCCAFMVFENKDSAERALQMNRSLLGNREISVSLADKKP”: the “soluble on expression in E. coli” value was “soluble”.
With “GHMAKHQIGVIGLAVMGKNLALNIESKGYSVAVYNRLREKTDEFLQEAKGKNIVGTYSIEEFVNALEKPRKILLMVKAGAPTDATIEQLKPHLEKGDIVIDGGNTYFKDTQRRNKELAELGIHFIGTGVSGGEEGALKGPSIMPGGQKEAHELVRPIFEAIAAKVDGEPCTTYIGPDGAGHYVKMVHNGIEYGDMQLIAEAYFLLKHVLGMDAAELHEVFADWNKGELNSYLIEITADIFTKIDEETGKPLVDVILDKAGQKGTGKWTSQNALDLGVPLPIITESVFARFLSAMKDERVKASKVLAGPAVKPFEGDRAHFIEAVRRALYMSKICSYAQGFAQMKAASEEYNWNLRYGDIAMIFRGGCIIRAQFLQKIKEAYDRDPALSNLLLDSYFKDIVERYQDALREIVATAAMRGIPVPGSASALAYYDSYRTAVLPANLIQAQRDYFGAHTYERVDKEGIFHTEWLK”, the “soluble on expression in E. coli” value is on record as “soluble”.
For the sequence “GHMAKTDRSQPSVLARIAAFRTGLSAEASAADYLERQGYRILARRFKTRCGEIDLVAQRDALVAFVEVKARGNVDDAAYAVTPRQQSRIVAAAEAWLSRHPEHAMSELRFDAILIAPNTAPRHLPGAFDATPGS”, the “soluble on expression in E. coli” value is recorded as “soluble”.
In the case of “GHMDIAEPAELDADELKRVLEALLLVIDTPVTADALAAATEQPVYRVAAKLQLMADELTGRDSGIDLRHTSEGWRMYTRARFAPYVEKLLLDGARTKLTRAALETLAVVAYRQPVTRARVSAVRGVNVDAVMRTLLARGLITEVGTDADTGAVTFATTELFLERLGLTSLSELPDIAPLLPDVDTIDDLSESLDSEPRFIKLTGELASEQTLSFDVDRD” it was “soluble”; in that of “GHMEERVLGMPAVESNMFPLGKQAPPFALTNVIDGNVVRLEDVKSDAATVIMFICNHCPFVKHVQHELVRLANDYMPKGVSFVAINSNDAEQYPEDSPENMKKVAEELGYPFPYLYDETQEVAKAYDAACTPDFYIFDRDLKCVYRGQLDDSRPNNGIPVTGESIRAALDALLEGRPVPEKQKPSIGCSIKWKPSA”, “soluble”; in that of “GHMFESAEVGHSIDKDTYEKAVIELREALLEAQFELKQQARFPVIILINGIEGAGKGETVKLLNEWMDPRLIEVQSFLRPSDEELERPPQWRFWRRLPPKGRTGIFFGNWYSQMLYARVEGHIKEAKLDQAIDAAERFERMLCDEGALLFKFWFHLSKKQLKERLKALEKDPQHSWKLSPLDWKQSEVYDRFVHYGERVLRRTSRDYAPWYVVEGADERYRALTVGRILLEGLQAALATKERAKRQPHAAPLVSSLDNRGLLDSLDLGQYLDKDAYKEQLAAEQARLAGLIRDKRFRQHSLVAVFEGNDAAGKGGAIRRVTDALDPRQYHIVPIAAPTEEERAQPYLWRFWRHIPARRQFTIFDRSWYGRVLVERIEGFCAPADWLRAYGEINDFEEQLSEYGIIVVKFWLAIDKQTQMERFKEREKTPYKRYKITEEDWRNRDKWDQYVDAVGDMVDRTSTEIAPWTLVEANDKRFARVKVLRTINDAIEAAYKKDKGA”, “soluble”.
In the case of “GILRTQHTIRDSELNIKNSKMSDSVNARESNVYMAKLAEQAERYDEMAKYMKDVVEARQESEELTVEERNLLSVAYKNAVGSRRSSWRIISSVEQKEHSRNAEDASKMCGKYRSKVEAELTDICNDILTMLDKHLIPTATSPDSKVFYFKMKGDYHRYISEFSTGDSKQSSAEDALKAYKDATVVAKDLEPTHPIRLGLALNFSVFHYEILNEPRAAIDMAKEAFEMAIEQLDKLSEDCYKDSTLIMQLLRDNLTLWTAD” it was “soluble”; in that of “GLDVAISQNGFFRLVDSNGSVFYSRNGQFKLDENRNLVNMQGMQLTGYPATGTPPTIQQGANPAPITIPNTLMAAKSTTTASMQINLNSTDPVPSKTPFSVSDADSYNKKGTVTVYDSQGNAHDMNVYFVKTKDNEWAVYTHDSSDPAATAPTTASTTLKFNENGILESGGTVNITTGTINGATAATFSLSFLNSMQQNTGANNIVATNQNGYKPGDLVSYQINNDGTVVGNYSNEQEQVLGQIVLANFANNEGLASQGDNVWAATQASGVALLGTAGSGNFGKLTNGALEASNVDLSK”, “soluble”.
In the case of “GLISDIIACPGMDYCALATARSIPVAQEIATRFEELKLEHEIGALKIKISGCINACGHHHVGHIGILGLDRAGVENYQITLGGDATETAAIGERTGPGFAYDQIVPAVERIVETYLDQRRDREESFIETYRRVGMAPFKAALYPE” it was “not soluble”; in that of “GLIVDTRDVEERVHVMRKTKLAPTVAHGVFNPEFGPAALSNKDPRLNEGVVLDEVIFSKHKGDTKMSAEDKALFRRCAADYASRLHSVLGTANAPLSIYEAIKGVDGLDAMEPDTAPGLPWALQGKRRGALIDFENGTVGPEVEAALKLMEKREYKFACQTFLKDEIRPMEKVRAGKTRIVDVLPVEHILYTRMMIGRFCAQMHSNNGPQIGSAVGCNPDVDWQRFGTHFAQYRNVWDVDYSAFDANHCSDAMNIMFEEVFRTEFGFHPNAEWILKTLVNTEHAYENKRITVEGGMPSGCSATSIINTILNNIYVLYALRRHYEGVELDTYTMISYGDDIVVASDYDLDFEALKPHFKSLGQTITPADKSDKGFVLGHSITDVTFLKRHFHMDYGTGFYKPVMASKTLEAILSFARRGTIQEKLISVAGLAVHSGPDEYRRLFEPFQGLFEIPSYRSLYLRWVNAVCGDAAALE”, “soluble”.
As for “GLKEHDFNPEEAEETKQVSWKLVTEYAMETKCDDVLLLLGMYLEFQYSFEMCLKCIKKEQPSHYKYHEKHYANAAIFADSKNQKTICQQAVDTVLAKKRVDSLQLTREQMLTNRFNDLLDRMDIMFGSTGSADIEEWMAGVAWLHCLLPKMDSVVYDFLKCMVYNIPKKRYWLFKGPIDSGKTTLAAALLELCGGKALNVNLPLDRLNFELGVAIDQFLVVFEDVKGTGGESRDLPSGQGINNLDNLRDYLDGSVKVNLEKKHLNKRTQIFPPGIVTMNEYSVPKTLQARFVKQIDFRPKDYLKHCLERSEFLLEKRIIQSGIALLLMLIWYRPVAEFAQSIQSRIVEWKERLDKEFSLSVYQKMKFNVAMGIGVLD”, the “soluble on expression in E. coli” value was “soluble”.
In the case of “GMDELELRIRKAEKLVQDAKKEFEMGLYERCCSTAYYAMFHAAKAMLLGYGRDSKTHRGTIYLIWECREELGLSDDDCSKLSRAFDLREESDYGIYKEVSKDLAIKILKDAEIFVQKAKNAVNKNR” it was “soluble”.
In the case of “GMDETPIFKIKKLTIAENDRSEYIRYAEKNMHDSIPAEEGTLLIGSGHDDAHGEDNYEIEVFRNKGAEDLHIAGSHADDFVETVNKIATKQKVIDLHPEVITTKAQRALNSYADNFVMRLIKVEVKDADAEKFSHAVKKEMTTSMASEPGMEIMMSGTNIDNPNEWYFIEVYANDEAYDIHVKTPHYKEYIEETDGMVKSRDVKTLVRDTLATQGAIVLD” it was “soluble”; in that of “GMDNVAEYRKLIKQVLTEYDNLSRQSPETNYETCLVFDENHDNYLWLAVDWQGSKRIKYTYVHIRIKNEKIYIEEDYTEEGIATELMRLGVTNNDIVLAFHPPDVRKFTDFATA”, “soluble”; in that of “GMDVLQKEIDEVYATHPTAHEALDNGIVEQHQQFVRSLTEVNGGCAVISDLSNRKSYVTVHPWANFLGLTPEEAALSVIDSMDEDCIYRRIHPEDLVEKRLMEYKFFQKTFSMSPGERLKYRGRCRLRMMNEKGVYQYIDNLVQIMQNTPAGNVWLIFCLYSLSADQRPEQGIYATITQMERGEVETLSLSEEHRNILSEREKEILRCIRKGLSSKEIAATLYISVNTVNRHRQNILEKLSVGNSIEACRAAELMKLL”, “soluble”.
In the case of “GMDYNQTVLSHLQKFWKHHDIKGFTWTLGRIVEELPDFQVFQVIPNHEDEPWVYVSSGIGQFLGQEFFIISPFETPEHIETLAMLASASMHYPDQFQLGKTVNIGRPWVEQSSFRHFLISLPYPYGQELEYMDNVRFFWLLPITQTERLFLNTHSVEELETKFDEAGIDYLDINRASTVWQAG” it was “soluble”; in that of “GMEKKSSYKTVLLGESSVGKSSIVLRLTKDTFHENTNTTIGASFCTYVVNLNDINIKNNSNNEKNNNINSINDDNNVIITNQHNNYNENLCNIKFDIWDTAGQERYASIVPLYYRGATCAIVVFDISNSNTLDRAKTWVNQLKISSNYIIILVANKIDKNKFQVDILEVQKYAQDNNLLFIQTSAKTGTNIKNIFYMLAEEIYKNIIN”, “soluble”; in that of “GMELPVVVQQALGDNAPGVSFRSVSQIDTGHLLRMVLLSDDQGNLQAICRRNDMLDLEALNKRLGRDLRMMQRREQVRVRQKAGLQELPALPSLTGWPTVVDRRVDELEAVALELGEQDLGLMMPAEDFRQLTAKAARHDFAVDTANISVNLDNHAADRDQLHSAIKRFTGLRIQQRLEDTLELPPLPETAQRIIHLRVNPNAVMGDLVDVVESDPSLAAQVVSWASSSFYAAAGRVHSVHDAVSRVLGFDLVMNLAMGLALGRALKHPQDHPDGYVDYWQQAIWQAQSAGILASMMPRGQRPLFGLAYLAGLLHNFGHLVLAQVFPPHFKLVCRSLEVSPHIDSSVIEHYLLGITREQIAAQLMENWGMPDEVTLAIRYQKNPAYDGPHNVYARLLWLGRQLLTERGVALGAGESATQAVYDELGLDRELVQEQFDELVRRKDSIMAMAGMMSQGG”, “soluble”.
On to “GMETTHYSIAQHFSSGDFPAVYACFNDIIEWNIIGNQVVKGKADVIDFCNKMLPEMKGAVLTNDNVIQNENQIVIEGKCRYFDAEGKEAFVSYCDIYRFENDTIKTITSYCI”, for which the “soluble on expression in E. coli” value was “soluble”.
